Laboratory results reported in publication PMC11950179 (Nature Communications, 2025).

Biological target: the molecule itself
Test: cryo-EM structure

B1: human phosphorylase kinase β subunit (PHKB), phosphorylated (natural protein, UniProt Q93100 1-1093, looked up)
chain: MAGAAGLTAEVSWKVLERRARTKRSGSVYEPLKSINLPRPDNETLWDKLDHYYRIVKSTLLLYQSPTTGLFPTKTCGGDQKAKIQDSLYCAAGAWALALAYRRIDDDKGRTHELEHSAIKCMRGILYCYMRQADKVQQFKQDPRPTTCLHSVFNVHTGDELLSYEEYGHLQINAVSLYLLYLVEMISSGLQIIYNTDEVSFIQNLVFCVERVYRVPDFGVWERGSKYNNGSTELHSSSVGLAKAALEAINGFNLFGNQGCSWSVIFVDLDAHNRNRQTLCSLLPRESRSHNTDAALLPCISYPAFALDDEVLFSQTLDKVVRKLKGKYGFKRFLRDGYRTSLEDPNRCYYKPAEIKLFDGIECEFPIFFLYMMIDGVFRGNPKQVQEYQDLLTPVLHHTTEGYPVVPKYYYVPADFVEYEKNNPGSQKRFPSNCGRDGKLFLWGQALYIIAKLLADELISPKDIDPVQRYVPLKDQRNVSMRFSNQGPLENDLVVHVALIAESQRLQVFLNTYGIQTQTPQQVEPIQIWPQQELVKAYLQLGINEKLGLSGRPDRPIGCLGTSKIYRILGKTVVCYPIIFDLSDFYMSQDVFLLIDDIKNALQFIKQYWKMHGRPLFLVLIREDNIRGSRFNPILDMLAALKKGIIGGVKVHVDRLQTLISGAVVEQLDFLRISDTEELPEFKSFEELEPPKHSKVKRQSSTPSAPELGQQPDVNISEWKDKPTHEILQKLNDCSCLASQAILLGILLKREGPNFITKEGTVSDHIERVYRRAGSQKLWLAVRYGAAFTQKFSSSIAPHITTFLVHGKQVTLGAFGHEEEVISNPLSPRVIQNIIYYKCNTHDEREAVIQQELVIHIGWIISNNPELFSGMLKIRIGWIIHAMEYELQIRGGDKPALDLYQLSPSEVKQLLLDILQPQQNGRCWLNRRQIDGSLNRTPTGFYDRVWQILERTPNGIIVAGKHLPQQPTLSDMTMYEMNFSLLVEDTLGNIDQPQYRQIVVELLMVVSIVLERNPELEFQDKVDLDRLVKEAFNEFQKDQSRLKEIEKQDDMTSFYNTPPLGKRGTCSYLTKAVMNLLLEGEVKPNNDDPCLIS
modifications: phosphorylated by PKAc; phosphoserine at Ser12, Ser27 and Ser701
binding result: binds
